The series has as its system HEK293T. Description: plasma membrane surface immunostaining intensity (anti-HA, deep receptor scanning) (arbitrary fluorescence units); higher = higher plasma membrane expression.

± gives the uncertainty stated by the source.

Regarding “MAEHDYHEDYGFSSFNDSSQEEHQDFLQFSKVFLPCMYLVVFVCGLVGNSLVLVISIFYHKLQSLTDVFLVNLPLADLVFVCTLPFWAYAGIHEWVFGQVMCKSLLGIYTINFYTSMLILTCITVDRFIVVVKATKAYNQQAKRMTWGKVTSLLIWVISLLVSLPQIIYGNVFNLDKLICGYHDEAISTVVLATQMTLGFFLPLLTMIVCYSVIIKTLLHAGGFQKHRSLKIIFLVMAVFLLTQMPFNLMKFIRSTHWEYYAMTSFHYTIMVTEAIAYLRACLNPVLYAFVSLKFRKNFWKLVKDIGCLPYLGVSHQWKSSEDNSKTFSASHNVEATSMFQL [CXCR6]”, the “plasma membrane surface immunostaining intensity” value (GPCR class: A) is 967 ± 65.

On to “MSSNSSLLVAVQLCYANVNGSCVKIPFSPGSRVILYIVFGFGAVLAVFGNLLVMISILHFKQLHSPTNFLVASLACADFLVGVTVMPFSMVRTVESCWYFGRSFCTFHTCCDVAFCYSSLFHLCFISIDRYIAVTDPLVYPTKFTVSVSGICISVSWILPLMYSGAVFYTGVYDDGLEELSDALNCIGGCQTVVNQNWVLTDFLSFFIPTFIMIILYGNIFLVARRQAKKIENTGSKTESSSESYKARVARRERKAAKTLGVTVVAFMISWLPYSIDSLIDAFMGFITPACIYEICCWCAYYNSAMNPLIYALFYPWFRKAIKVIVTGQVLKNSSATMNLFSEHI [TAAR6]”, for which the “plasma membrane surface immunostaining intensity” value (GPCR class: A) came to 175 ± 65.

On to “MKAGNFSDTPEFFLLGLSGDPELQPILFMLFLSMYLATMLGNLLIILAVNSDSHLHTPMYFLLSILSLVDICFTSTTMPKMLVNIQAQAQSINYTGCLTQICFVLVFVGLENGILVMMAYDRFVAICHPLRYNVIMNPKLCGLLLLLSFIVSVLDALLHTLMVLQLTFCIDLEIPHFFCELAHILKLACSDVLINNILVYLVTSLLGVVPLSGIIFSYTRIVSSVMKIPSAGGKYKAFSICGSHLIVVSLFYGTGFGVYLSSGATHSSRKGAIASVMYTVVTPMLNPLIYSLRNKDMLKALRKLISRIPSFH [OR7G3]”, for which the “plasma membrane surface immunostaining intensity” value (GPCR class: A (Olfactory)) was determined as 111 ± 21.

Regarding “MAWRGAGPSVPGAPGGVGLSLGLLLQLLLLLGPARGFGDEEERRCDPIRISMCQNLGYNVTKMPNLVGHELQTDAELQLTTFTPLIQYGCSSQLQFFLCSVYVPMCTEKINIPIGPCGGMCLSVKRRCEPVLKEFGFAWPESLNCSKFPPQNDHNHMCMEGPGDEEVPLPHKTPIQPGEECHSVGTNSDQYIWVKRSLNCVLKCGYDAGLYSRSAKEFTDIWMAVWASLCFISTAFTVLTFLIDSSRFSYPERPIIFLSMCYNIYSIAYIVRLTVGRERISCDFEEAAEPVLIQEGLKNTGCAIIFLLMYFFGMASSIWWVILTLTWFLAAGLKWGHEAIEMHSSYFHIAAWAIPAVKTIVILIMRLVDADELTGLCYVGNQNLDALTGFVVAPLFTYLVIGTLFIAAGLVALFKIRSNLQKDGTKTDKLERLMVKIGVFSVLYTVPATCVIACYFYEISNWALFRYSADDSNMAVEMLKIFMSLLVGITSGMWIWSAKTLHTWQKCSNRLVNSGKVKREKRGNGWVKPGKGSETVV [FZD4]”, the “plasma membrane surface immunostaining intensity” value (GPCR class: F) is 5830 ± 270.

Turning to “MTILLNSSLQRATFFLTGFQGLEGLHGWISIPFCFIYLTVILGNLTILHVICTDATLHGPMYYFLGMLAVTDLGLCLSTLPTVLGIFWFDTREIGIPACFTQLFFIHTLSSMESSVLLSMSIDRYVAVCNPLHDSTVLTPACIVKMGLSSVLRSALLILPLPFLLKRFQYCHSHVLAHAYCLHLEIMKLACSSIIVNHIYGLFVVACTVGVDSLLIFLSYALILRTVLSIASHQERLRALNTCVSHICAVLLFYIPMIGLSLVHRFGEHLPRVVHLFMSYVYLLVPPLMNPIIYSIKTKQIRQRIIKKFQFIKSLRCFWKD [OR51G1]”, the “plasma membrane surface immunostaining intensity” value (GPCR class: A (Olfactory)) was 116 ± 20.

Take “MSGENVTKVSTFILVGLPTAPGLQYLLFLLFLLTYLFVLVENLAIILIVWSSTSLHRPMYYFLSSMSFLEIWYVSDITPKMLEGFLLQQKRISFVGCMTQLYFFSSLVCTECVLLASMAYDRYVAICHPLRYHVLVTPGLCLQLVGFSFVSGFTISMIKVCFISSVTFCGSNVLNHFFCDISPILKLACTDFSTAELVDFILAFIILVFPLLATILSYWHITLAVLRIPSATGCWRAFSTCASHLTVVTVFYTALLFMYVRPQAIDSQSSNKLISAVYTVVTPIINPLIYCLRNKEFKDALKKALGLGQTSH [OR6B2]”: the “plasma membrane surface immunostaining intensity” value (GPCR class: A (Olfactory)) worked out at 153 ± 9.6.

Consider “MQPESGANGTVIAEFILLGLLEAPGLQPVVFVLFLFAYLVTVRGNLSILAAVLVEPKLHTPMYFFLGNLSVLDVGCISVTVPSMLSRLLSRKRAVPCGACLTQLFFFHLFVGVDCFLLTAMAYDRFLAICRPLTYSTRMSQTVQRMLVAASWACAFTNALTHTVAMSTLNFCGPNVINHFYCDLPQLFQLSCSSTQLNELLLFAVGFIMAGTPMALIVISYIHVAAAVLRIRSVEGRKKAFSTCGSHLTVVAIFYGSGIFNYMRLGSTKLSDKDKAVGIFNTVINPMLNPIIYSFRNPDVQSAIWRMLTGRRSLA [OR3A1]”, for which the “plasma membrane surface immunostaining intensity” value (GPCR class: A (Olfactory)) is 125 ± 18.

Regarding “MSYFYRLKLMKEAVLVKLPFTSLPLLLQTLSRKSRDMEIKNYSSSTSGFILLGLSSNPQLQKPLFAIFLIMYLLAAVGNVLIIPAIYSDPRLHTPMYFFLSNLSFMDICFTTVIVPKMLVNFLSETKVISYVGCLAQMYFFMAFGNTDSYLLASMAIDRLVAICNPLHYDVVMKPRHCLLMLLGSCSISHLHSLFRVLLMSRLSFCASHIIKHFFCDTQPVLKLSCSDTSSSQMVVMTETLAVIVTPFLCIIFSYLRIMVTVLRIPSAAGKWKAFSTCGSHLTAVALFYGSIIYVYFRPLSMYSVVRDRVATVMYTVVTPMLNPFIYSLRNKDMKRGLKKLQDRIYR [OR1L6]”, where the note is “GPCR class: A (Olfactory)”, the “plasma membrane surface immunostaining intensity” value was determined as 247 ± 87.

Regarding “METTMGFMDDNATNTSTSFLSVLNPHGAHATSFPFNFSYSDYDMPLDEDEDVTNSRTFFAAKIVIGMALVGIMLVCGIGNFIFIAALVRYKKLRNLTNLLIANLAISDFLVAIVCCPFEMDYYVVRQLSWEHGHVLCTSVNYLRTVSLYVSTNALLAIAIDRYLAIVHPLRPRMKCQTATGLIALVWTVSILIAIPSAYFTTETVLVIVKSQEKIFCGQIWPVDQQLYYKSYFLFIFGIEFVGPVVTMTLCYARISRELWFKAVPGFQTEQIRKRLRCRRKTVLVLMCILTAYVLCWAPFYGFTIVRDFFPTVFVKEKHYLTAFYIVECIAMSNSMINTLCFVTVKNDTVKYFKKIMLLHWKASYNGGKSSADLDLKTIGMPATEEVDCIRLK [PROKR1]”, the “plasma membrane surface immunostaining intensity” value (GPCR class: A) amounted to 2260 ± 380.

With “MGFLSPMHPCRPPTQRRMAAGNHSTVTEFILKGLTKRADLQLPLFLLFLGIYLVTIVGNLGMITLICLNSQLHTPMYYFLSNLSLMDLCYSSVITPKMLVNFVSEKNIISYAGCMSQLYFFLVFVIAECYMLTVMAYDRYVAICHPLLYNIIMSHHTCLLLVAVVYAIGLIGSTIETGLMLKLPYCEHLISHYFCDILPLMKLSCSSTYDVEMTVFFSAGFNIIVTSLTVLVSYTFILSSILGISTTEGRSKAFSTCSSHLAAVGMFYGSTAFMYLKPSTISSLTQENVASVFYTTVIPMLNPLIYSLRNKEVKAAVQKTLRGKLF [OR8A1]”, the “plasma membrane surface immunostaining intensity” value (GPCR class: A (Olfactory)) was determined as 191 ± 82.

Regarding “MELWNFTLGSGFILVGILNDSGSPELLCATITILYLLALISNGLLLLAITMEARLHMPMYLLLGQLSLMDLLFTSVVTPKALADFLRRENTISFGGCALQMFLALTMGGAEDLLLAFMAYDRYVAICHPLTYMTLMSSRACWLMVATSWILASLSALIYTVYTMHYPFCRAQEIRHLLCEIPHLLKVACADTSRYELMVYVMGVTFLIPSLAAILASYTQILLTVLHMPSNEGRKKALVTCSSHLTVVGMFYGAATFMYVLPSSFHSTRQDNIISVFYTIVTPALNPLIYSLRNKEVMRALRRVLGKYMLPAHSTL [OR2AG1]”, the “plasma membrane surface immunostaining intensity” value (GPCR class: A (Olfactory)) was determined as 135 ± 23.

For “MEARNQTAISKFLLLGLIEDPELQPVLFSLFLSMYLVTILGNLLILLAVISDSHLHTPMYFFLSNLSFLDICLSTTTIPKMLVNIQAQNRSITYSGCLTQICFVLFFAGLENCLLAAMAYDRYVAICHPLRYTVIMNPRLCGLLILLSLLTSVVNALLLSLMVLRLSFCTDLEIPLFFCELAQVIQLTCSDTLINNILIYFAACIFGGVPLSGIILSYTQITSCVLRMPSASGKHKAVSTCGSHLSIVLLFYGAGLGVYISSVVTDSPRKTAVASVMYSVFPQMVNPFIYSLRNKDMKGTLRKFIGRIPSLLWCAICFGFRFLE [OR7G2]”, the “plasma membrane surface immunostaining intensity” value (GPCR class: A (Olfactory)) amounted to 165 ± 53.

Take “MKLGSSRAGPGRGSAGLLPGVHELPMGIPAPWGTSPLSFHRKCSLWAPGRPFLTLVLLVSIKQVTGSLLEETTRKWAQYKQACLRDLLKEPSGIFCNGTFDQYVCWPHSSPGNVSVPCPSYLPWWSEESSGRAYRHCLAQGTWQTIENATDIWQDDSECSENHSFKQNVDRYALLSTLQLMYTVGYSFSLISLFLALTLLLFLRKLHCTRNYIHMNLFASFILRTLAVLVKDVVFYNSYSKRPDNENGWMSYLSEMSTSCRSVQVLLHYFVGANYLWLLVEGLYLHTLLEPTVLPERRLWPRYLLLGWAFPVLFVVPWGFARAHLENTGCWTTNGNKKIWWIIRGPMMLCVTVNFFIFLKILKLLISKLKAHQMCFRDYKYRLAKSTLVLIPLLGVHEILFSFITDDQVEGFAKLIRLFIQLTLSSFHGFLVALQYGFANGEVKAELRKYWVRFLLARHSGCRACVLGKDFRFLGKCPKKLSEGDGAEKLRKLQPSLNSGRLLHLAMRGLGELGAQPQQDHARWPRGSSLSECSEGDVTMANTMEEILEESEI [GLP2R]”: the “plasma membrane surface immunostaining intensity” value (GPCR class: B) was 121 ± 21.

As for “MMGLTEGVFLILSGTQFTLGILVNCFIELVNGSSWFKTKRMSLSDFIITTLALLRIILLCIILTDSFLIEFSPNTHDSGIIMQIIDVSWTFTNHLSIWLATCLGVLYCLKIASFSHPTFLWLKWRVSRVMVWMLLGALLLSCGSTASLINEFKLYSVFRGIEATRNVTEHFRKKRSEYYLIHVLGTLWYLPPLIVSLASYSLLIFSLGRHTRQMLQNGTSSRDPTTEAHKRAIRIILSFFFLFLLYFLAFLIASFGNFLPKTKMAKMIGEVMTMFYPAGHSFILILGNSKLKQTFVVMLRCESGHLKPGSKGPIFS [TAS2R3]”, the “plasma membrane surface immunostaining intensity” value (GPCR class: Taste) came out at 135 ± 22.

“METNSSLPTNISGGTPAVSAGYLFLDIITYLVFAVTFVLGVLGNGLVIWVAGFRMTHTVTTISYLNLAVADFCFTSTLPFFMVRKAMGGHWPFGWFLCKFVFTIVDINLFGSVFLIALIALDRCVCVLHPVWTQNHRTVSLAKKVIIGPWVMALLLTLPVIIRVTTVPGKTGTVACTFNFSPWTNDPKERINVAVAMLTVRGIIRFIIGFSAPMSIVAVSYGLIATKIHKQGLIKSSRPLRVLSFVAAAFFLCWSPYQVVALIATVRIRELLQGMYKEIGIAVDVTSALAFFNSCLNPMLYVFMGQDFRERLIHALPASLERALTEDSTQTSDTATNSTLPSAEVELQAK [FPR1]”: for the setting “GPCR class: A”, the “plasma membrane surface immunostaining intensity” value came to 6448 ± 46.

With “MPNSTTVMEFLLMRFSDVWTLQILHSASFFMLYLVTLMGNILIVTVTTCDSSLHMPMYFFLRNLSILDACYISVTVPTSCVNSLLDSTTISKAGCVAQVFLVVFFVYVELLFLTIMAHDRYVAVCQPLHYPVIVNSRICIQMTLASLLSGLVYAGMHTGSTFQLPFCRSNVIHQFFCDIPSLLKLSCSDTFSNEVMIVVSALGVGGGCFIFIIRSYIHIFSTVLGFPRGADRTKAFSTCIPHILVVSVFLSSCSSVYLRPPAIPAATQDLILSGFYSIMPPLFNPIIYSLRNKQIKVAIKKIMKRIFYSENV [OR14C36]”, where the note is “GPCR class: A (Olfactory)”, the “plasma membrane surface immunostaining intensity” value worked out at 264 ± 80.

Values taken from the supplement of paper PMC12458215.
